The Human Domainome abundance scans (Beltran et al. 2025)

B1: Far upstream element-binding protein 3, residues 75 to 150; numbered along this chain, Q96I24 (parent)
chain: RTVITEEFKVPDKMVGFIIGRGGEQISRIQAESGCKIQIASESSGIPERPCVLTGTPESIEQAKRLLGQIVDRCRN

Variants of: B1
Test: abundance fitness (aPCA) (normalised: wild type 0, dead -1); higher = more abundant; growth selection in yeast, the domain comes from the species named
Conditions: Homo sapiens

Abundance fitness, by site and new letter:
S59: V -0.284, Y -0.675, Q -0.014, R -0.141, I -0.621, M -0.152, N -0.013, A -0.045, E -0.04, W -0.999, K -0.161, H -0.221, C -0.146, P -0.866
T56: R -0.107, H -0.106, K -0.166, Q -0.127, Y -0.049, N -0.105, C -0.097, M -0.183, A -0.086, L -0.138, S -0.013, P -0.094, G -0.232, E -0.08, I -0.225, W -0.332
L67: D -0.884, E -0.757, C -0.397, Q -0.839, S -0.811, T -0.666, A -0.845, Y -1.04, G -0.864, P -0.649, R -1.01, H -0.908, N -0.884, I -0.131, F -0.367, K -0.834, M -0.099, W -0.981
R49: G -0.129, P -0.182, T -0.044, S -0.141, I -0.141, V -0.052, N -0.155, K -0.099, L -0.19, M -0.169, Q -0.081, W -0.271
T54: K -0.033, H -0.01, G -0.512, V -0.044, W -0.269, F -0.378, S -0.078, C -0.187, R -0.018, E -0.071, M -0.077, D -0.187, N -0.1, L -0.129, A -0.11, P -1.15, I -0.065, Y -0.102
A63: Y -1.59, L -0.746, S -0.401, V -0.31, F -0.427, K -0.968, M -0.292, T -0.412, G -0.065, Q -0.907, W -1.25, R -1.22, P -0.986, E -0.831, C -0.03, N -1.25, I -0.457, H -0.911
E61: C -0.078, R -0.046, N -0.064, H -0.031, I -0.105, F -0.035, T -0.009, D 0.027, A -0.037, L -0.082, K -0.026, W -0.111, V -0.046, Q -0.018, G -0.017, S -0.026, P -0.553
K64: F -0.801, M -0.336, E -0.388, L -0.491, S -0.416, Q -0.197, V -0.35, T -0.285, I -0.275, W -0.578, A -0.429, Y -0.505, D -0.89, G -0.658, P -1.14, H -0.421, C -0.453, R -0.095
L53: W -1.42, H -1.09, C -0.191, K -1.12, S -0.838, V -0.227, E -1.05, G -0.971, I -0.016, R -1.25, M -0.134, Q -1.13, A -0.473, F -0.354, P -1.32, D -0.96, T -0.94
I60: P -1.1, Q -0.806, G -0.988, R -0.21, N -0.182, D -0.972, K -0.767, Y -1, L -0.119, A -0.542, W -0.995, S -0.836, H -0.631, M -0.343, F -0.754, V -0.025, C -0.088, E -0.877, T -0.223
